Laboratory results as given in US20030236197A1.

Target: Aβ1-40 peptide (monomeric start material of the nucleation assay)
Assay: cell-based or functional assay

| Substance | Nucleation assay Δ lag at 1.25 µM compound (ratio of lag time to control) | Nucleation assay Δ lag at 2.5 µM compound (ratio of lag time to control) | Nucleation assay Δ lag at 5 µM compound (ratio of lag time to control) | Nucleation assay Δ lag at 0.6 µM compound (row marked #: measured at 2.5, 1.25 and 0.6 µM) (ratio of lag time to control) | Nucleation assay Δ lag at 1.25 µM compound (row marked #: measured at 2.5, 1.25 and 0.6 µM) (ratio of lag time to control) | Nucleation assay Δ lag at 2.5 µM compound (row marked #: measured at 2.5, 1.25 and 0.6 µM) (ratio of lag time to control) |
| --- | --- | --- | --- | --- | --- | --- |
| PPI-969: TFA • N-ethyl-(Gaffvl)-NH2 (peptide) | 3 | > 5 | > 5 |  |  |  |
| PPI-1013: TFA • H-(Glvffl)-NH2 (peptide) |  |  |  | 2 | > 3 | 2 |
